Starred links: 1 amine or outer side, 2 acyl side, 3 side chain; linkers in the order of their positions; H or OH if unused. Positions of bridges follow the written chain, without caps; N, C: chain ends. Non-standard residues stand in square brackets, D forms with d. Residues, ends and D or L forms follow the SMILES beside them. No end group written: not given here. ACHC(1S,2S) = O=C([C@H]1CCCC[C@@H]1N[*:1])[*:2]
Key:
[1] = target: T1, interferon γ receptor 1 (IFNGR1) (Homo sapiens, UniProt P15260); assay: biochemical; settings: read-out: ka
[2] = target: T1, interferon γ receptor 1 (IFNGR1); settings: SPR, 25° C., 1:1 interaction model
FXIIa = FXIIa (Homo sapiens, UniProt P00748); settings: reference protein inhibitor against FXIIa; cited from earlier work
[3] = target: T2, human factor XIIa (activated blood coagulation factor XII) (human, UniProt P00748 20-615, limits assumed, biotinylated (site not stated)); assay: inhibition of FXIIa cleavage of the chromogenic substrate S-2302 (H-D-Pro-Phe-Arg-pNA), absorbance at 405 nm
T2 construct: The construct used for SPR, for the Ki assay and for the cocrystal is not described; The same entry is used for all three; also called FXIIa; FXIIA
T2 sequence (looked up): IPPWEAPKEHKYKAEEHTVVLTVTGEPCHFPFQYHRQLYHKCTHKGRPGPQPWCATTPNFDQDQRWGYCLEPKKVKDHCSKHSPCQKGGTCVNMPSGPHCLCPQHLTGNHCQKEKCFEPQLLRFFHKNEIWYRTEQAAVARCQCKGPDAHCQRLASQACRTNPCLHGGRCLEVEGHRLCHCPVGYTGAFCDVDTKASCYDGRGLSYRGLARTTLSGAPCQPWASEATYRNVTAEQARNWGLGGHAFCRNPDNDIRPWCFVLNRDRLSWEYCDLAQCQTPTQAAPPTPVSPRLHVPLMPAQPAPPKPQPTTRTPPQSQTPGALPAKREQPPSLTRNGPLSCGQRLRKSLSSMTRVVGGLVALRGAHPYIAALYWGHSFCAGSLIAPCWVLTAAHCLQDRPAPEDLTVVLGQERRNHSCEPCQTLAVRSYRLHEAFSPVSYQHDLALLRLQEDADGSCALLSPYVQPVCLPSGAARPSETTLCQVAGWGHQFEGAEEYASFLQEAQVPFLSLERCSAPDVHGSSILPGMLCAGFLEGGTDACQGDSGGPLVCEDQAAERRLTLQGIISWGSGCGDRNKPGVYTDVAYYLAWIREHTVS

[4] = target: T2, human factor XIIa (activated blood …); assay: SPR, Biacore T200, 25 C, single cycle kinetics, 1:1 model
[5] = target: T2, human factor XIIa (activated blood …); assay: SPR, Biacore T200, 25 C, single cycle kinetics, 1:1 model; peptide F2A (drawing CHEM-US-00044, read number 0), control variant of F2

With CC(C)[C@@H]1NC(=O)CNC(=O)[C@H](Cc2ccccc2)NC(=O)[C@@H](Cc2ccc(O)cc2)NC(=O)CSC[C@H](C(N)=O)NC(=O)[C@H]([C@@H](C)O)NC(=O)[C@H](CCCNC(=N)N)NC(=O)[C@H](CC(N)=O)NC(=O)[C@H](Cc2ccc(O)cc2)NC(=O)[C@H](Cc2ccccc2)NC(=O)[C@H](C)NC(=O)[C@H](CCCNC(=N)N)NC1=O [I1-1A] ({CH2CO}-[dY]FGVRAFYNRT[dC]-NH2; thioether N-12) the kon [1] was 20000 M⁻¹ s⁻¹ and the kd [2] was 4.12 10^−2 · s^−1.

In the case of corn trypsin inhibitor [CTI], the Ki (FXIIa) is listed as 24 nM.

B1: F3 (peptide)
peptide: {CH2CO}-[dY]FAYDRR[ACHC(1S,2S)]LSNN[ACHC(1S,2S)]RNY[dC]
modifications: thioether N-17
notes: Made by solid-phase synthesis with the C-terminal TGTGT linker omitted; The formula f3 in the summary and claims ends in RNT; also called yFAYDRR1LSNN1RNYc
B1 gave a Ki [3] of 1.02 nM, a Kd [4] of 0.98 nM and a koff [4] of 0.0016 s⁻¹.

B2: F2A (peptide)
peptide: {CH2CO}-[dY]PRLFNASYLRR[dC]
modifications: thioether N-13
notes: also called negative control peptide of F2
With B2 the Kd [5] was 92.2 nM and the koff [4] was 0.438 s⁻¹.
